Molecular target: T1, cyan fluorescent protein (CFP)-SR-A (class A scavenger receptor) (human, UniProt P21757 1-451)
T1 sequence (looked up): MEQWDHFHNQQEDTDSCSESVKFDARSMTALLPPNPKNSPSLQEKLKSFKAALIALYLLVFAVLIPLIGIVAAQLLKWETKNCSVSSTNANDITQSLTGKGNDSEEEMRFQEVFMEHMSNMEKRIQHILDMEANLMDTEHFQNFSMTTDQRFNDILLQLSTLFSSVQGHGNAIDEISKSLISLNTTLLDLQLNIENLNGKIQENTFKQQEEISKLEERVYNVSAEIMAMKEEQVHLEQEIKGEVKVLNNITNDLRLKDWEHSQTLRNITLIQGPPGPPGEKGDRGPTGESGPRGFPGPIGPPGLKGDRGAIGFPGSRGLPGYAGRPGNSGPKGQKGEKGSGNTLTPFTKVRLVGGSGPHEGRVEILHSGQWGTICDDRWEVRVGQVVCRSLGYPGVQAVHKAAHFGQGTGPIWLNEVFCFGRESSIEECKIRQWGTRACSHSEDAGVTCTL
Assay: FRET or BRET

FR (mean FRET ratio): 2.17
B1: yellow fluorescent protein (YFP)-GRP78 (78 kDa glucose-regulated protein) (natural protein)
chain: not shown
